Source: patent publication US20220064331A1 (Genentech, published 2022)

T1: cynomolgus monkey KLB (+N-ter FLAG) (cynomolgus monkey, UniProt Q86Z14 53-991 (human entry))
T1 construct: expressed from KLB cDNA on HEK293T cells and read by FACS; also called Cyno KLB
T1 chain: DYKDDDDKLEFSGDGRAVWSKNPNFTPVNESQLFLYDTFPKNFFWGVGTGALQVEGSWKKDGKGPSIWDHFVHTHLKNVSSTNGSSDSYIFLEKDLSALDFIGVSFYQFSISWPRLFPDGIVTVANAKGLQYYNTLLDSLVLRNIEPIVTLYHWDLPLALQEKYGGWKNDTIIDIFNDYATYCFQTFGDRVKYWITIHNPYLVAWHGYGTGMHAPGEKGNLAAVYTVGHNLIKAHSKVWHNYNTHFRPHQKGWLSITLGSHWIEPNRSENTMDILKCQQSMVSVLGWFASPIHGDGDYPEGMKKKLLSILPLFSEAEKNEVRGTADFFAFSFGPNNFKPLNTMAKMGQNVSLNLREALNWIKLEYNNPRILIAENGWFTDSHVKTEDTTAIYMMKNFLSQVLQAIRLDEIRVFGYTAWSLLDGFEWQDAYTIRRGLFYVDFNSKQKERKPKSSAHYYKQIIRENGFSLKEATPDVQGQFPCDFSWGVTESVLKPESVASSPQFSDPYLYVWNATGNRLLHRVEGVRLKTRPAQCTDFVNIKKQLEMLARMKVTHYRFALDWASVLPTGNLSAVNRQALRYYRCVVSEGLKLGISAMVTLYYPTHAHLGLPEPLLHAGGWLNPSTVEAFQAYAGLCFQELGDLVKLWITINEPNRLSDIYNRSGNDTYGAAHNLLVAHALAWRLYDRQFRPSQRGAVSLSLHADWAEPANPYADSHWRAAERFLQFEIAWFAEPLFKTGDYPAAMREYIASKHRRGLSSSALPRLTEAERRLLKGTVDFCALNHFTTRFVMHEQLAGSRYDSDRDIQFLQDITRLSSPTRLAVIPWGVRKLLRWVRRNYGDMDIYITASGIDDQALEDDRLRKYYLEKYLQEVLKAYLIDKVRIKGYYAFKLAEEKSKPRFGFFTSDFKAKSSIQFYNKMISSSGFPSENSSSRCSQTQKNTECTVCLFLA

T2: mouse KLB (mouse, UniProt Q99N32 53-990)
T2 construct: expressed from KLB cDNA on HEK293T cells and read by FACS; also called msKLB
T2 sequence: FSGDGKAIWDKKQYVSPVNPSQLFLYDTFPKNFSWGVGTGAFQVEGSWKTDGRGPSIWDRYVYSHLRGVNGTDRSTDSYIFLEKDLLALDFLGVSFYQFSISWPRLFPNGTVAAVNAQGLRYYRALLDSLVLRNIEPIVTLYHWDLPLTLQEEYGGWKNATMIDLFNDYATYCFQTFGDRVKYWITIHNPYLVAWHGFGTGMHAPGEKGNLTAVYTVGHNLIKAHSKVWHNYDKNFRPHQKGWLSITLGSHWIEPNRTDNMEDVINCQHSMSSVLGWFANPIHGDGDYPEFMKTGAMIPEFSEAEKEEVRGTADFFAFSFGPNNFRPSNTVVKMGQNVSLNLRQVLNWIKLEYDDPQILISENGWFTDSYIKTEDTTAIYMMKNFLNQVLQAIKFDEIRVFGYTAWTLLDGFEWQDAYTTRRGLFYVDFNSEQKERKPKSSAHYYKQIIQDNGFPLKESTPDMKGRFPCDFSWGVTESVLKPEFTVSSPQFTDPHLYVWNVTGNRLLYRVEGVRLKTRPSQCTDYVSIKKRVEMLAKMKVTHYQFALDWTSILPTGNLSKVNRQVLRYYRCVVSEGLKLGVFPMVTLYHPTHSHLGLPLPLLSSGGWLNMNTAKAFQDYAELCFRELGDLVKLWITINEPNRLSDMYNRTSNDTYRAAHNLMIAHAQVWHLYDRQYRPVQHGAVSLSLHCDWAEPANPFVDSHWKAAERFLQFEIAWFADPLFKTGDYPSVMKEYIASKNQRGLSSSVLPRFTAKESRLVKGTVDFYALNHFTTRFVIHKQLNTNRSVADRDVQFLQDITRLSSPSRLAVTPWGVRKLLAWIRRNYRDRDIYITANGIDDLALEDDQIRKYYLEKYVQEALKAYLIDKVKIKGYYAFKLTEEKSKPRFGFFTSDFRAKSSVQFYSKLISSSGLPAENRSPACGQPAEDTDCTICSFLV


Experiments:
[1] = molecular target: T1, cynomolgus monkey KLB (+N-ter FLAG); assay: FACS on transfected HEK293T cells
Method: (§1) Species cross reactivity of the disclosed anti-KLB antibodies were analyzed by FACS analysis using KLB cDNA from mouse, rat, rabbit, cynomolgus monkey and rhesus monkey cloned into pRK mammalian expression vectors transiently transfected into HEK293T cells. The KLB extracellular domain polypeptide sequences that were expressed are as follows: […]

mouse KLB = molecular target: T2, mouse KLB; assay: FACS on transfected HEK293T cells
Method: as §1

[2] = molecular target: T3, human KLB expressed on cells (human, UniProt Q86Z14 53-1044); assay: FACS on 293 cells expressing hKLB, antibody at 0.8 µg/ml, median shift
T3 construct: on transfected 293 / HEK293 cells; also called hKLB; beta-Klotho

| Binder | binding result [1] | binding result (mouse KLB) | binding result [2] |
| --- | --- | --- | --- |
| 14E6 (antibody, V domains shown, murine hybridoma-derived anti-KLB antibody) VH: EVPLQQSGPELVKPGATVKISCKPSGDTFTEYTMNWVRQSHGKSLEWIGGINPNNGETSYNQKFKGKATLTVDKSSSTAFMDLRILTSEDSAVYFCARKTTNYWGQGTTLIVSS VL: DIQMTQSPSSLSASLGERVSLTCRASQEISGYLSWLQQKPDGTIKRLIYAASTLDSGVPRRFSGSRSGSDYSLTISSLESEDFADYYCLQYGSYPWTFGGGTKLELK | binds | binds | – |
| 8C5 (antibody, V domains shown, murine hybridoma-derived anti-KLB antibody; also called KLBmAb1) VH: QVQLKQSGPGLVQPSQSLSVACTVSDFSLTTYGVHWVRQSPGKGLEWLGVIWSGGSTDYNAAFISRLTISKDNSKSQVFFKMNSLQTTDTAIYYCARDYGSTYVDAIDYWGQGTSVTVSS VL: DIVLTQSPTSLAVSLGQRATISCRASESVESYGNRYMTWYQQKPGQPPKLLIYRAANLQSGIPARFSGSGSRTDFTLTIDPVEADDVATYYCQQSNEDPWTFGGGTKVEIK | binds | binds | binds |
| 5F8 (antibody, V domains shown, murine hybridoma-derived anti-KLB antibody) VH: EVQLQQSGTELVRPGASVKLSCTSSDFNIKDTYIHWVKQRPEQGLDWLGRIDPANGNTKYDPKFQGKAAMTSDTSSNTAYLRLSSLTSEDTAVYYCASSGNYGAMDYWGQGTSVTVSS VL: ESVLTQSPALMSASLGEKVTMTCRASSSVNHMYWYQQKSDASPKLWIYYTSTLAPGVPARFSGSGSGNSYSLTISSMEGEDAATYYCQQFTISPSMYTFGGGTKLEIK | binds | no binding | binds |
| 8H7 (antibody, V domains shown, murine hybridoma-derived anti-KLB antibody) VH: QVQLQQPGAEIVKPGASVRLSCKASGYSFTSYWIHWVKQRPGQGLEWIGEIDPSVSNSNYNQKFKGKATLTADKSSSTAYMQLSGLTSEDSAVYFCVRLGVMVYGSSPFWFAYWGQGTLVTVSA VL: DIVMTQSQKFMSTSVGDRVSITCKASQFVSDAVAWYQQKPGQSPKLLICSASYRYTGVPDRFTGSGSGTDFTFTISSVRTEDLAVYYCQQHYIVPYTFGGGTTLEIE | binds | – | binds |
| 21H3 (antibody, V domains shown, murine hybridoma-derived anti-KLB antibody) VH: QVQLQQPGAEIVKPGASVRLSCKASGYSFTSYWIHWVKQRPGQGLEWIGEIDPSVSNSNYNQKFKGKATLTADKSSSTAYMQLSGLTSEDSAVYFCVRLGVMVYGSSPFWFAYWGQGTLVTVSA VL: DIVMTQSQKFMSTSVGDRVSITCKASQFVSDAVAWYQQKPGQSPKLLICSASYRYTGVPDRFTGSGSGTDFTFTISSVRTEDLAVYYCQQHYIVPYTFGGGTTLEIE | binds | – | – |
| 12B8 (antibody, V domains shown, murine hybridoma-derived anti-KLB antibody) VH: QIQLVQSGPELKKPGETAKISCKASGYAFSNYGMNWVKQAPGKDLKWMGWIDTDTGEATYTDDFKGRFVFSLETSASTAYLQINNLKNEDMATYFCAREEYGLFGFPYWGHGTLVTVSA VL: DIQMTQSSSSFSVSLGDRVTITCKASEDIYNRLAWYQQKPGSAPRLLISAATSLETGVPSRFSGSGSGKDYTLSITSLQTEDVATYYCQQYWSNPLTFGAGTKLEIK | binds | no binding | binds |
| 12A11 (antibody, V domains shown, murine hybridoma-derived anti-KLB antibody; also called KLBmAb2) VH: EVKFLESGGGLVQPGGSLRLSCAVSGIDFSRYWMSWVRQAPGKGLEWIGEISPDSSTINYTPSLKDKFVISRDNAKNTLYLQMSKVRSADTALYYCARPSPALDYWGQGTLVTVSA VL: DIVMTQSPATLSVTPGDRVSLSCRASQSISDYVYWYQQKSHESPRLLIIYASQSISGIPSRFSGSGSGSDFTLSINSVEPEDVGVYYCQNGHNFPYTFGGGTKLEIK | binds | – | binds |

Second part, the binder after the results:

| binding result [1] | binding result (mouse KLB) | binding result [2] | Binder |
| --- | --- | --- | --- |
| binds | no binding | binds | 8E1 (antibody, V domains shown, murine hybridoma-derived anti-KLB antibody) VH: EVQLQQSGAELVKPGASVKLSCTAADFNIKDTYMHWVKQRPEQGLEWIGRIDPSNGNAKYDPKFQGKASITADSSSNTAYLHLSSLTSEDTAVYYCASRALGNGYALGYWGQGTSVTVSS VL: DIQMTQSSSYLSVSLGGSVTITCKASDHINNWLAWYQQKPGNAPRLLIYGTTNLETGVPSRFSGSGSGRDYILSITSLQSEDVASYYCQQYWNTPFTFGSGTKLEIK |
| binds | no binding | binds | 25F7 (antibody, V domains shown, murine hybridoma-derived anti-KLB antibody) VH: EVQLQQSGAELLKPGASVRLSCTASGFNIQDTFTHWVRQRPEQGLEWIGRIDPSNGNTKYDPKFQGKAKILADTSSNTAYLQLIGLTSEDTAVYYCASRALGNGYAMDYWGQGTSVTVSS VL: DIQMTQSSSYLSVSLGGRVTITCKASDHINNWLAWYQQKPGNAPRLLISGASNLETGIPSRFSGSGSGKDYTLTITSLQTEDVATYYCQQYWNTPFTFGSGTKLEIK |
| no binding | no binding | – | 46C3 (antibody, V domains shown, murine hybridoma-derived anti-KLB antibody) VH: EVQLQQSGAELVKPGASVKLSCTASDFNIIDTYIHWVKQRPEQGLEWIGRIDPANGNTKYDPKFQDKAALTSDTDSNTAYLLFNSLTSEDTAVYYCARGTSYSWFAYWGQGTLVSVSA VL: AVLMTQTPLSLPVSLGDQASISCRSSQNIVHSDGNTYLEWYLQKPGQSPKLLIYKVSNRFSGVPDRFSGSGSGRDFTLKISRVEAGDLGVYYCFQGSHVLTFGAGTRLELK |
| binds | no binding | – | 11F1 (antibody, V domains shown, murine hybridoma-derived anti-KLB antibody) VH: EVQLVESGGGLVKPGGSLKLSCAPSGFTFSSYGISWVRQTPEKRLEWVATVSSGGRYTYYPDSVKGRFTISRDNAENTLYLQMSSLRSEDTAMYYCTRGGDGYALDYWGQGTSVTVSS VL: DIQMTQTTSSLSASLGDRVTIICSASQVISNYLNWYQQKPDGTVKLLIYFTSSLRSGVPSRFSGSGSGTDYSLTISNLEPEDVATYFCQQYSKLPWTFGGGTKLELK |
| binds | binds | binds | 14C6 (antibody, V domains shown, murine hybridoma-derived anti-KLB antibody) VH: QIQLQQSGAELMKPGASVRMSCKASGYTFSSYWIEWVKQRSGHGLEWIGEIFPGGGSTIYNENFRDKATFTADTSSNTAYMQLSSLTSEDSAVYFCARRGYYDAAWFDYWGQGTLVTVSA VL: QIVLTQSPAIMSASPGERVTLTCSASSSLSSSYLYWYQQKPGSSPKLWIYGASNLASGVPGRFSGSGSGTSYSLTISSMEAEDAASYFCHQWSSYPLTFGSGTKLELK |
| binds | binds | binds | 24A1 (antibody, V domains shown, murine hybridoma-derived anti-KLB antibody) VH: QVQLKQSGAELVRPGTSVTLSCKASGYTFTDYEMHWMKQTPVYGLEWIGAIWPENADSVYNQKFKGKVTLTADKSSSTAYMDLRSLTSEDSAVYYCTREGGNYWGQGTTLTVSS VL: not shown |
